Results from US20240132573A1.

Tests used:
Test in all cases: cell-based or functional assay
Plasma kallikrein = Plasma kallikrein (UniProt P03952)
Activated protein C = Activated protein C (UniProt P04070)
Thrombin = Thrombin (UniProt P00734)
Plasmin = Plasmin (UniProt P00747)
Human βFXIIa (Human) = target: T1, Human βFXIIa (Human) (UniProt P00748)
T1 sequence (looked up): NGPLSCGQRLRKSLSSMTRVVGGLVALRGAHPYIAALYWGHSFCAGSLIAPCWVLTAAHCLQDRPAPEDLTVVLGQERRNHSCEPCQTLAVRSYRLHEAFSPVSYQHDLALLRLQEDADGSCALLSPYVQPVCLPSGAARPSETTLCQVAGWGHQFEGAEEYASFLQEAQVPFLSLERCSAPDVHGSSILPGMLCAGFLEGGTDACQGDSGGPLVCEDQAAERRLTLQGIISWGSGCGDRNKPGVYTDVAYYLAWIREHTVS

Human αFXIIa (Human) = Human αFXIIa (Human) (UniProt P00748)

Chain of Plasma kallikrein (P03952 20-638 limits assumed): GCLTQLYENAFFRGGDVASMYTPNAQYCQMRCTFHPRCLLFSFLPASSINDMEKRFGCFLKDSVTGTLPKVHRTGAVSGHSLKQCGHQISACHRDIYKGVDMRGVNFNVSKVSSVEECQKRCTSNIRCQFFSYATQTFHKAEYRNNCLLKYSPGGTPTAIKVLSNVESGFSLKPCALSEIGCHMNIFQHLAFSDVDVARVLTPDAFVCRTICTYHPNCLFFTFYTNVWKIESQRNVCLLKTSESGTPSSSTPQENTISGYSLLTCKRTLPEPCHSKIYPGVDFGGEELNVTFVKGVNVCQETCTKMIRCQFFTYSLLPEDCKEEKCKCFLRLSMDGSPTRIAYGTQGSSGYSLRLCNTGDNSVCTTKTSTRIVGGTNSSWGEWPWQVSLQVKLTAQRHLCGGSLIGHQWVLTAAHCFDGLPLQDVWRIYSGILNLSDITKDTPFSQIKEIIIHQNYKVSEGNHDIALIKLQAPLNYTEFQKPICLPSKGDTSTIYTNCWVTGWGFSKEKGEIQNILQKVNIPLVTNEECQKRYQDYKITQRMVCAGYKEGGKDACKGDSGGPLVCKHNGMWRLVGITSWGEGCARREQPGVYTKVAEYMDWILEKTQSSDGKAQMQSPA
Chain of Activated protein C (P04070 43-461): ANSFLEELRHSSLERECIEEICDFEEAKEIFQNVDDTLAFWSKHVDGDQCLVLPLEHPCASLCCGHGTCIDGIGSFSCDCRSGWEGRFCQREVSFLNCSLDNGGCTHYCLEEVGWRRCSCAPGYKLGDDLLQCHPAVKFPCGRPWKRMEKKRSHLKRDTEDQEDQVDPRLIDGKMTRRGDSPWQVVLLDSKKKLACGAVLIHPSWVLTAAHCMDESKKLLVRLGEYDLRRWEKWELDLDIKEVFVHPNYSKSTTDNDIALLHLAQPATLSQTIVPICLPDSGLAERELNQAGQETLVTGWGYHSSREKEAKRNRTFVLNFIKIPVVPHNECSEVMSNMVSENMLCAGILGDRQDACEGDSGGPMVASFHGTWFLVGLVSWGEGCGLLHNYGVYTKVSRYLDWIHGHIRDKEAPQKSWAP
Chain of α1-Antitrypsin WT (P01009 25-418): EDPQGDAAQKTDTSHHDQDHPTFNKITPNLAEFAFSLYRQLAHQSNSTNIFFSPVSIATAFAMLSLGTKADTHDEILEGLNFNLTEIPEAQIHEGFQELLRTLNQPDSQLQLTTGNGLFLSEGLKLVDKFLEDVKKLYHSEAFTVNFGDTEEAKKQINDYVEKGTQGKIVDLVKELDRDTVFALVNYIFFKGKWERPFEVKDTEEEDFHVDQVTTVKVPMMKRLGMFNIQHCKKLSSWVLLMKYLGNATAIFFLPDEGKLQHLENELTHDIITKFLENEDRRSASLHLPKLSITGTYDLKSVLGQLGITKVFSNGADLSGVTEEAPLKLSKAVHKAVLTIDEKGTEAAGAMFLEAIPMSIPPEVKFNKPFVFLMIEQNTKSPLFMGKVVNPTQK
Chain of Plasmin (P00747 97-810 limits assumed): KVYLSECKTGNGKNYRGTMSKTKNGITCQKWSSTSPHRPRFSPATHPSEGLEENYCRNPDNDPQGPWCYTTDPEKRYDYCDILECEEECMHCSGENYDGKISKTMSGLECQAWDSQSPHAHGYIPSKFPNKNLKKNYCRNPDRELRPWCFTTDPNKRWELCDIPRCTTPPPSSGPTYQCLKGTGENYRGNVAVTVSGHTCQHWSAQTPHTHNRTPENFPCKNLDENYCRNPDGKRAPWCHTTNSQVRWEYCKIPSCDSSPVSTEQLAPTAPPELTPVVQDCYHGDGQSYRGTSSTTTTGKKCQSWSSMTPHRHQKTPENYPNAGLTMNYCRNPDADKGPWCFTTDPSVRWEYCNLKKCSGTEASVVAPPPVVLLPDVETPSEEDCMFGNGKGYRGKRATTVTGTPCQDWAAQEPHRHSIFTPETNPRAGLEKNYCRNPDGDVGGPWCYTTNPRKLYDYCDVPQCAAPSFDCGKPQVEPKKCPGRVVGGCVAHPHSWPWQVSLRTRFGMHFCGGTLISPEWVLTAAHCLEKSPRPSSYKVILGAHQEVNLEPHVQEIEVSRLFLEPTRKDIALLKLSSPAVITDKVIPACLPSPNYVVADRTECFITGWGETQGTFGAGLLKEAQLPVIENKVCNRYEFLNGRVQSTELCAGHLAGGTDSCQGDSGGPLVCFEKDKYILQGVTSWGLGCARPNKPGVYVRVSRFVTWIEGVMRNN

Substance	percentage inhibition, average (L2120 conversion) (Plasma kallikrein) [%]	percentage inhibition, average (S2366 conversion) (Activated protein C) [%]	percentage inhibition, average (I1140 conversion) (Thrombin) [%]	percentage inhibition, average (I1390 conversion) (Plasmin) [%]	percentage inhibition, average (L2120 conversion) (Human βFXIIa (Human)) [%]	percentage inhibition, average (L2120 conversion) (Human αFXIIa (Human)) [%]
α1-Antitrypsin WT (from UniProt P01009 25-418)	0	0	0	0	0	0
α1-Antitrypsin variant 357AR358 (from UniProt P01009 25-418)	98	66.5	97.5	99	49	62.5
α1-Antitrypsin variant M358R (from UniProt P01009 25-418)	91.5	94	100	100	90	94
α1-Antitrypsin variant SATRox* (from UniProt P01009 25-418)	94	10	3	0	15	17
α1-Antitrypsin variant SDYKox* (from UniProt P01009 25-418)	50	1	0	7	7	–
α1-Antitrypsin variant SEARox* (from UniProt P01009 25-418)	92	3	0	13	6	–
α1-Antitrypsin variant SFNRox* (from UniProt P01009 25-418)	94	5	7	3	3	5
α1-Antitrypsin variant SGNRox* (from UniProt P01009 25-418)	71.6	1	0	1	5.2	–
α1-Antitrypsin variant SGQRox* (from UniProt P01009 25-418)	88	6.5	14.5	5	4	4.5
α1-Antitrypsin variant SKGRox* (from UniProt P01009 25-418)	97	0	7	37	22	–
α1-Antitrypsin variant SLGRox* (from UniProt P01009 25-418)	95.5	1	9.5	5.3	17.3	–
α1-Antitrypsin variant SLLRox* (from UniProt P01009 25-418)	97.7	9.7	62.3	94.7	41	–
α1-Antitrypsin variant SLLRox*-I (from UniProt P01009 25-418)	91.3	2.3	3.7	66.7	40.3	–
α1-Antitrypsin variant SLLRox*-V (from UniProt P01009 25-418)	97.5	3	4.5	68	47	–
α1-Antitrypsin variant SMDRox* (from UniProt P01009 25-418)	87	0	0	20	4	–
α1-Antitrypsin variant SMHRox* (from UniProt P01009 25-418)	96.3	34	10	73	18.3	–
α1-Antitrypsin variant SMTR (from UniProt P01009 25-418)	98.5	75	10.5	94	85	88.5
α1-Antitrypsin variant SMTRox* (from UniProt P01009 25-418)	98.7	76.5	10.3	94.5	89.2	92.5
α1-Antitrypsin variant SMTRox*-GVGG (from UniProt P01009 25-418)	39	3	3	20	9	–
α1-Antitrypsin variant SMTRox*-VVGG (from UniProt P01009 25-418)	47	0	1	8	29	–
α1-Antitrypsin variant SNSRox* (from UniProt P01009 25-418)	97	7	62	0	20	–
α1-Antitrypsin variant SPRRox* (from UniProt P01009 25-418)	97	1	0	19	2	1
α1-Antitrypsin variant SVRKox* (from UniProt P01009 25-418)	91	4	1	97	0	2
α1-Antitrypsin variant SVTRox* (from UniProt P01009 25-418)	99	49	7	97	39	47
α1-Antitrypsin variant SVVKox* (from UniProt P01009 25-418)	55	8	6	95	2	4
α1-Antitrypsin variant SWKKox* (from UniProt P01009 25-418)	94	0	0	47	5	–
α1-Antitrypsin variant SYARox* (from UniProt P01009 25-418)	97	7	62	0	20	–
